Results: article PMC8508734 (International Journal of Molecular Sciences, 2021)

B1: H3R-YFP (rat histamine H3 receptor, long isoform H3(445)R, fused to Yellow Fluorescent Protein) (receptor, UniProt Q9QYN8 1-445, looked up)
chain: MERAPPDGLMNASGTLAGEAAAAGGARGFSAAWTAVLAALMALLIVATVLGNALVMLAFVADSSLRTQNNFFLLNLAISDFLVGAFCIPLYVPYVLTGRWTFGRGLCKLWLVVDYLLCASSVFNIVLISYDRFLSVTRAVSYRAQQGDTRRAVRKMALVWVLAFLLYGPAILSWEYLSGGSSIPEGHCYAEFFYNWYFLITASTLEFFTPFLSVTFFNLSIYLNIQRRTRLRLDGGREAGPEPPPDAQPSPPPAPPSCWGCWPKGHGEAMPLHRYGVGEAGPGVEAGEAALGGGSGGGAAASPTSSSGSSSRGTERPRSLKRGSKPSASSASLEKRMKMVSQSITQRFRLSRDKKVAKSLAIIVSIFGLCWAPYTLLMIIRAACHGRCIPDYWYETSFWLLWANSAVNPVLYPLCHYSFRRAFTKLLCPQKLKVQPHGSLEQCWK
notes: histamine H3 receptor, rat, long isoform H3(445)R (445 residues), cDNA amplified without its stop codon and cloned into pEYFP-N1; The same construct was expressed in HEK 293 cells and in rat cortical neurons; the assay tells which; also called C-terminal YFP-fused H3R; source: rat cortical neurons in primary culture, transfected (lipofectamine 2000); not shown: YFP, C-terminal, kept

How the values were obtained:
[1] = molecular target: T1, histamine H3 receptor (H3R) (Rattus norvegicus, UniProt Q9QYN8); test: BRET between H3R-RLuc and H3R-YFP in HEK […] cells; also […]GTPγS binding (inverse agonist); format: cell-based
T1 construct: gene Hrh3; long isoform H3(445)R, C-terminal RLuc / YFP fusions

[2] = molecular target: T2, H3R-RLuc (rat histamine H3 receptor, long isoform H3(445)R, fused to Renilla Luciferase) (rat, UniProt Q9QYN8 1-445); test: FRET or BRET; BRET donor saturation curves in intact living HEK 293 cells, constant RLuc fusion and increasing YFP fusion, 48 h after transfection, HBSS, 25 °C, coelenterazine H 5 µM; without or with imetit or thioperamide (100 nM); settings: partners not purified
T2 construct: histamine H3 receptor, rat, long isoform H3(445)R (445 residues), cDNA amplified without its stop codon and cloned into pRL-CMV-RLuc; The same construct was expressed in HEK 293 cells and in rat cortical neurons; the assay tells which; also called H3R-Luc; source: rat cortical neurons in primary culture, transfected (lipofectamine 2000); not shown: Renilla Luciferase (RLuc), C-terminal, kept

Row | Molecule | EC50 [1] [nM] | BRET50 (basal) [2] [acceptor/donor ratio] | BRET50 (with imetit 100 nM) [2] [acceptor/donor ratio] | BRET50 (with thioperamide 100 nM) [2] [acceptor/donor ratio]
1 | S=C(NC1CCCCC1)N1CCC(c2cnc[nH]2)CC1 [thioperamide] | 2 ± 1 |  |  | 
2 | B1 |  | 1.24 | 1.19 | 1.56
